Measurements from patent publication US7514408 (ELAN PHARMACEUTICALS, dated 2009).
Numbered stars: 1 amine (or outer) side, 2 acyl side, 3 side chain; on linkers, the order of the positions; unused ones are H or OH. Square brackets hold non-standard residues; d marks the D form. Ends that are not written are not given here. Ahppa(3S,4S) = O=C(C[C@H](O)[C@H](Cc1ccccc1)N[*:1])[*:2]; ACHPA = O=C(C[C@H](O)[C@H](CC1CCCCC1)N[*:1])[*:2]; Sta = CC(C)C[C@H](N)[C@@H](O)CC(=O)O; Phg = N[C@H](C(=O)O)c1ccccc1; Nle = CCCC[C@H](N)C(=O)O; norSta = nor-statine

What follows are binders tested against T1, β-secretase (enzyme preparation not stated for the inhibitor assays) (human, UniProt P56817 46-501, limits assumed) (assay: cell-based or functional assay).
T1 sequence (P56817 46-501 limits assumed): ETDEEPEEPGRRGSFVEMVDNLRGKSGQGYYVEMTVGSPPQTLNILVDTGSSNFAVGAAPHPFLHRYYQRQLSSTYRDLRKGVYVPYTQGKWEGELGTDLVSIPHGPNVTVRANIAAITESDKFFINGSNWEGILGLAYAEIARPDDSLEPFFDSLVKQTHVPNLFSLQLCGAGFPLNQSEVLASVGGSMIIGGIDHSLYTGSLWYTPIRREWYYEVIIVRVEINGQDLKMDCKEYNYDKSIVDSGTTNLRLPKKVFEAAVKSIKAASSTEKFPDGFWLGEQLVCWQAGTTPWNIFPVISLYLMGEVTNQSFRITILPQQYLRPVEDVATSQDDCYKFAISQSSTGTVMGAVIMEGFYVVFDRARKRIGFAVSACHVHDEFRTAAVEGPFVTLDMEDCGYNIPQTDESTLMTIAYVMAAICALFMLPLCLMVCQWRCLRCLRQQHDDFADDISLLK

IC50 Group, MBP C125 assay (Group I: IC50 of <µm [sic]), < 1 µM:
Ac-V[Phg][Sta]VAEF [heptamer peptide 7G (Ac-Val-Phg-Sta-Val-Ala-Glu-Phe)]
Ac-V[Nle][Sta]VAEF [heptamer peptide 7H (Ac-Val-nLeu-Sta-Val-Ala-Glu-Phe)]
Ac-VM[Ahppa(3S,4S)]VAEF [heptamer peptide 7O (Ac-Val-Met-pheSta-Val-Ala-Glu-Phe)]
Ac-VM[Sta]VAEF [heptamer peptide 7B (Ac-Val-Met-Sta-Val-Ala-Glu-Phe)]

IC50 Group, MBP C125 assay (Group II: =1<10 µM), < 10 µM:
Ac-VN[Sta]VAEF [heptamer peptide 7I (Ac-Val-Asn-Sta-Val-Ala-Glu-Phe)]
Ac-VF[Sta]VAEF [heptamer peptide 7J (Ac-Val-Phe-Sta-Val-Ala-Glu-Phe)]
Ac-VM[norSta]VAEF [heptamer peptide 7P (Ac-Val-Met-norSta-Val-Ala-Glu-Phe)]
H-VM[ACHPA]VAEF [heptamer peptide 7Q ((NH2)Val-Met-acha-Val-Ala-Glu-Phe)]

Biological target: T1, β-secretase (enzyme preparation not …)
Test: cell-based or functional assay
Remark: another data set of the same source

Inhibitor potency relative to the valine substitution alone, ~100 times:
KTEEISEVN[Sta]VAEF [P10-P4′staD→V]
